# Experimental data as given in paper PMC8310357.
# Target: Ostreolysin A6 (Pleurotus ostreatus) (UniProt P83467)
# UniProt P83467, sequence (P83467 whole entry): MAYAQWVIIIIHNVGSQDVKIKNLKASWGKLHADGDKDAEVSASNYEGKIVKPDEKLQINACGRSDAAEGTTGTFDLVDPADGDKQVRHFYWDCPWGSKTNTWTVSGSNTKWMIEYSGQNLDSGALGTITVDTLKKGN
substance,measurement,value
Δ48EryB (erylysin B) (natural protein),"haemolysis of bovine erythrocytes, aegerolysin/MACPF-protein 12.5/1, 25 °C; against OlyA6/PlyB",90 % lower
